Assays:
[1] = target: K48-linked IQF (internally quenched fluorescence) diubiquitin substrate DiUb48-6 (UniProt P0CG48); assay: stopped-flow fluorescence
[2] = target: K48-linked IQF (internally quenched fluorescence) diubiquitin substrate DiUb48-6 (UniProt P0CG48); assay: other fluorescence titration

B1: C276A USP2 catalytic core (inactive active-site mutant) (domain or fragment)
chain: NSKSAQGLAGLRNLGNTAFMNSILQCLSNTRELRDYCLQRLYMRDLHHGSNAHTALVEEFAKLIQTIWTSSPNDVVSPSEFKTQIQRYAPRFVGYNQQDAQEFLRFLLDGLHNEVNRVTLRPKSNPENLDHLPDDEKGRQMWRKYLEREDSRIGDLFVGQLKSSLTCTDCGYCSTVFDPFWDLSLPIAKRGYPEVTLMDCMRLFTKEDVLDGDEKPTCCRCRGRKRCIKKFSIQRFPKILVLHLKRFSESRIRTSKLTTFVNFPLRDLDLREFASENTNHAVYNLYAVSNHSGTTMGGHYTAYCRSPGTGEWHTFNDSSVTPMSSSQVRTSDAYLLFYELASPPSRM
With B1 the K1 (association constant of the first step) [1] was 2.33 µM⁻¹, the K2 (equilibrium constant of the second step) [1] was 0.59 and the Kd from a fit to a single exponential function [1] was 2420 nM. For the same binder, the k1 (first step, association) [1] was 140000 M⁻¹ s⁻¹, the k−1 (first step, dissociation) [1] was 0.06 s⁻¹ and the maximum of kobs,2 [1] was 0.57 s⁻¹. The y-intercept of the linear regression of kobs,1 [1] was 0.63 s⁻¹ and the Kd [2] was 270 nM.

Source: article PMC3617563
